Data: patent US20240398906A1

Experiments:
[1] = biological target: endogenous HSP70 from the mouse Ret melanoma cell line (mouse) (UniProt Q61696); assay: cell-based or functional assay
[2] = biological target: recombinant HSP70 (UniProt P0DMV8); assay: ELISA, plate coated with recombinant HSP70, detection with anti-human peroxidase antibody
[3] = biological target: recombinant catalytic domain of human LOX (169-417) (human) (UniProt P28300); assay: ELISA, plate coated with LOX catalytic domain, detection with anti-human peroxidase antibody
Sequence of recombinant catalytic domain of human LOX (169-417) (human) (P28300 169-417 limits assumed): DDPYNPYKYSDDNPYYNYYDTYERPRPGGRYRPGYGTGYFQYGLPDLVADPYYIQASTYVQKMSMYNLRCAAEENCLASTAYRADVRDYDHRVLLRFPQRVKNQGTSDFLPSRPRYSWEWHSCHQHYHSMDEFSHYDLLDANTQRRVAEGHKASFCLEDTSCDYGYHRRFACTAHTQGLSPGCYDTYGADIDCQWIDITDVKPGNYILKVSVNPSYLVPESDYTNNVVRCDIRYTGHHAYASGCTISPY

Sequence of endogenous HSP70 from the mouse Ret melanoma cell line (mouse) (Q61696 2-641): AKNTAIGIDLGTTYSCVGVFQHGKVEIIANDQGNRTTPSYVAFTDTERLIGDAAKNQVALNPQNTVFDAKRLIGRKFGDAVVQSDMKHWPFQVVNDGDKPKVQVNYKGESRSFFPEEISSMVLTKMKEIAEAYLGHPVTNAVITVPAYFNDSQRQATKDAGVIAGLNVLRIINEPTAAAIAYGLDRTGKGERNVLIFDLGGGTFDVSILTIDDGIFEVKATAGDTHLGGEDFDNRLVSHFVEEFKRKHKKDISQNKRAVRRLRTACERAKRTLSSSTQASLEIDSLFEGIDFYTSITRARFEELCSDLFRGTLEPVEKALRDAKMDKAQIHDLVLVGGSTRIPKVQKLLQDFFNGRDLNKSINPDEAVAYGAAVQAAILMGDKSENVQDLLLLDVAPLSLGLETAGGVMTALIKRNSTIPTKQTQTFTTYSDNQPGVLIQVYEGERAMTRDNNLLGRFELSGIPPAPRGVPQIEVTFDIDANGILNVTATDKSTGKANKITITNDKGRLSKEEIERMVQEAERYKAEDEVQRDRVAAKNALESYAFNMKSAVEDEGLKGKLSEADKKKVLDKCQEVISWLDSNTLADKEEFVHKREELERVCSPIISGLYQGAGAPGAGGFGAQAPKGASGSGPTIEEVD
Sequence of recombinant HSP70 (P0DMV8 whole entry, the tested form may be a part): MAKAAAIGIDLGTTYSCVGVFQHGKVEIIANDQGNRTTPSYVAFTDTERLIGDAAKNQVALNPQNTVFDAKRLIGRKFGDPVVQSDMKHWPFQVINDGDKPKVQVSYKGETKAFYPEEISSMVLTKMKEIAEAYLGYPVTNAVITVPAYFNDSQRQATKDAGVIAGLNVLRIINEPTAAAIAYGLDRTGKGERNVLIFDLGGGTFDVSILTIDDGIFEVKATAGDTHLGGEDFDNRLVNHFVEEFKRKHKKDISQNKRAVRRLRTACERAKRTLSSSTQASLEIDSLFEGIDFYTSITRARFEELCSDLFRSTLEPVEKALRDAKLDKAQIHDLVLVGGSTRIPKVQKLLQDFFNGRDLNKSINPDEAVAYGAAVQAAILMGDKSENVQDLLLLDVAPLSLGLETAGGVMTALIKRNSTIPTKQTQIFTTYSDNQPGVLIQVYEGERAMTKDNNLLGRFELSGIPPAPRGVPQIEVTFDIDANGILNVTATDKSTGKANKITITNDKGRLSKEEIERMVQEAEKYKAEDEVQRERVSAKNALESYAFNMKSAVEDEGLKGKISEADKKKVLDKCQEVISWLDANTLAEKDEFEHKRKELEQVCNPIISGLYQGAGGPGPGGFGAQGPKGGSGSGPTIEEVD

“AS2 (non-glycosylated LOX-PP fused to human IgG1 Fc) (Fc fusion)” gave an ATPase activity of HSP70 in the culture media of Ret-melanoma cells (decrease against Fc) [1] of 18%, an EC50 [2] of 57 nM and an EC50 [3] of 58 nM.
